Target: the molecule itself
Experiment: SEC; size-exclusion chromatography after elution from the His Trap Nickel column; estimated apparent molecular weight 113 kDa

B1: Human kynurenine aminotransferase 1 (hKYAT1), wild-type, recombinant (enzyme)
chain: MAKQLQARRLDGIDYNPWVEFVKLASEHDVVNLGQGFPDFPPPDFAVEAFQHAVSGDFMLNQYTKTFGYPPLTKILASFFGELLGQEIDPLRNVLVTVGGYGALFTAFQALVDEGDEVIIIEPFFDCYEPMTMMAGGRPVFVSLKPGPIQNGELGSSSNWQLDPMELAGKFTSRTKALVLNTPNNPLGKVFSREELELVASLCQQHDVVCITDEVYQWMVYDGHQHISIASLPGMWERTLTIGSAGKTFSATGWKVGWVLGPDHIMKHLRTVHQNSVFHCPTQSQAAVAESFEREQLLFRQPSSYFVQFPQAMQRCRDHMIRSLQSVGLKPIIPQGSYFLITDISDFKRKMPDLPGAVDEPYDRRFVKWMIKNKGLVAIPVSIFYSVPHQKHFDHYIRFCFVKDEATLQAMDEKLRKWKVEL
notes: human kynurenine aminotransferase 1 (KYAT1), wild type; The PDB entries are cited crystal structures of human KYAT1, not necessarily of this construct; also called KAT1; cysteine-S-conjugate beta-lyase 1; source: E. coli BL21, purified (His Trap Nickel column, size-exclusion chromatography)
stoichiometry N: 2

From paper PMC12808825, “Structural and functional modulation of human kynurenine aminotransferase I enhances selenium-driven redox metabolism for cancer therapy” (Redox Biology, 2025)
